The nature of this series: protein stability index of a GFP-peptide fusion (GPS, HEK-293T) (PSI 1-6); higher = more stable.
Setting [1] is: treatment: DMSO, c terminus: a fixed tail appended.
Setting [2] is: treatment: MLN4924 1 uM, 8 h, c terminus: a fixed tail appended.

± gives the standard deviation.
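Note: 24-mer peptide tiles fused after GFP, lentivirally expressed, FACS-sorted into six equal bins by GFP/DsRed ratio, decoded by Illumina sequencing, PSI is the read-weighted mean bin number.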

On to FIWFVCSLVYYGLTLSAGDLGGSI [SLC22A15], for which the protein stability index by setting is: under setting [1], 3.46 ± 0.52; under setting [2], 3 ± 0.78.

FIYSTWKGRTIYLEDIYVMPEYRG [SAT2]: the protein stability index stood at 3.21 ± 0.44 under setting [1] and 2.8 ± 0.52 under setting [2].

For the sequence FMEFYQDVKDWWLFGFYFCMPLVC [EDNRA], the protein stability index worked out at 3.155 ± 0.026 under setting [1] and 3.2 ± 0.56 under setting [2].

Take FMHSRNLYILGNFMQLKCFSSQKL [PNLIPRP1]: the protein stability index runs as follows: under setting [1], 3.11 ± 1.1; under setting [2], 2.53 ± 0.74.

For FNSILPGVLILFLTFFAFLHCWLN [SOAT1], the protein stability index was 2.22 ± 0.63 under setting [1] and 2.29 ± 0.36 under setting [2].

In the case of FNYLHTNCFEITLELSCDKFPPEE [CPN1], the protein stability index under setting [1] came out at 2.5 ± 0.51 and the protein stability index under setting [2] is 2.09 ± 0.42.

Consider FNYSVGFKDLNESLNALEDQDLDA [APBB1IP], for which the protein stability index reads like this: under setting [1], 4.13 ± 0.33; under setting [2], 3.98 ± 0.68.

On to FPGPQEHTQVLPDVRLLPRRLPLA [DYRK1B], for which the protein stability index came to 3.37 ± 0.083 under setting [1] and 3.58 ± 0.2 under setting [2].

For FRDAAEEGGTAVTGGQTVVNPWII [SEPHS2], the protein stability index reads like this: under setting [1], 3.45 ± 0.2; under setting [2], 3.54 ± 0.26.

FRGFPPEDLMPLAAAYGHALEQYE [P3H4]: the protein stability index worked out at 2.8 ± 0.36 under setting [1] and 3.08 ± 0.16 under setting [2].

Take FRGQILGFWEEERPFWEEEKTFWK [CCDC70]: the protein stability index under setting [1] worked out at 2.25 ± 0.33 and the protein stability index under setting [2] was 2.28 ± 0.31.

Regarding FRPYFTIHDSEFKEYTTRTQAPPS [DENND6A], the protein stability index came to 2.55 ± 0.23 under setting [1] and 2.71 ± 0.27 under setting [2].

FSHDGLHVASLADDKMVRFWRIDE [WSB1]: the protein stability index by setting is: under setting [1], 2.44 ± 0.48; under setting [2], 2.72 ± 0.52.

For the sequence FSQKHFPEVVQHEEFILLSQGEVE [KLHL12], the protein stability index is, setting by setting: under setting [1], 3.44 ± 0.81; under setting [2], 3.45 ± 0.33.

As for FTLGTNAIIISTIVLDRALHIPMY [OR10K2], the protein stability index reads like this: under setting [1], 2.89 ± 0.82; under setting [2], 2.87 ± 0.78.

Turning to FVAFALCMFCLYSFMPLVIKVTSA [SLC35F2], the protein stability index reads like this: under setting [1], 3.2 ± 0.44; under setting [2], 3.32 ± 0.68.

Regarding FYKREMFDPAEKYKMDHRRRGIAL [CASP6], the protein stability index reads like this: under setting [1], 2.84 ± 0.2; under setting [2], 2.78 ± 0.26.

With FYQAVRDLLPVWLLEDMRASEAFH [ANKRD9], the protein stability index is, setting by setting: under setting [1], 2.85 ± 0.47; under setting [2], 2.59 ± 0.57.

FYQSPYDSEQVPQALRRLRPRTRK [NCF4]: the protein stability index by setting is: under setting [1], 4.63 ± 0.37; under setting [2], 4.68 ± 0.3.

FYSQEWYARQHCPLKNPTFLDYVR [SOAT1]: the protein stability index was determined as 2.4 ± 0.47 under setting [1] and 2.13 ± 0.25 under setting [2].

As for GALWGLQAQAVQTEQAVALLRDRT [SCARA5], the protein stability index by setting is: under setting [1], 3.07 ± 0.23; under setting [2], 3.03 ± 0.31.

Take GASSPAAYDEALAELHAHGPAAFV [ZSWIM9]: the protein stability index reads like this: under setting [1], 3.87 ± 0.22; under setting [2], 3.99 ± 0.19.

Consider GAYSSASSFSRPLGYPYVNSVSSH [DLX1], for which the protein stability index was 3.1 ± 0.15 under setting [1] and 3.12 ± 0.25 under setting [2].

GDASECPQATNAKDSGCSSPGAH [PPEF2] registered a protein stability index (treatment: DMSO, c terminus: native) of 5.78 ± 0.1 and a protein stability index (treatment: MLN4924 1 uM, 8 h, c terminus: native) of 5.57 ± 0.12.

Turning to GDKGALQRLIVGNSALKDKEDQFG [INVS], the protein stability index reads like this: under setting [1], 4.62 ± 0.21; under setting [2], 4.72 ± 0.093.

With GEELADVGGVLRGLNHSLSYDVAL [SCARA5], the protein stability index turned out to be 3.4 ± 0.17 under setting [1] and 3.41 ± 0.21 under setting [2].

GEFRTGKTQICHTLAVTCQLPIDR [RAD51]: the protein stability index under setting [1] worked out at 2.73 ± 0.52 and the protein stability index under setting [2] stood at 3.02 ± 0.29.

Turning to GGDEVDDSVSVNDIDLSLYIPRDV [ZC3H15], the protein stability index by setting is: under setting [1], 4.62 ± 0.13; under setting [2], 4.45 ± 0.61.

As to GGFPIIRDQIFRYVHDPECVATTG [FBXO3], the protein stability index by setting is: under setting [1], 2.14 ± 0.29; under setting [2], 2.7 ± 0.57.

In the case of GGGSYGKLFESVECYDPRTQQWTA [GAN], the protein stability index is, setting by setting: under setting [1], 3 ± 0.13; under setting [2], 3.13 ± 0.29.

As for GGPAQNAPHQQPPAPPSDALLDLH [TFE3], the protein stability index reads like this: under setting [1], 5.06 ± 0.29; under setting [2], 5.29 ± 0.2.

Turning to GGSELGGWSLGRWTHDGIDINNNF [CPXM2], the protein stability index reads like this: under setting [1], 3.06 ± 0.031; under setting [2], 2.64 ± 0.054.

For the sequence GGVGYGDSKDCILEPLSLPESPGG [ZNF277], the protein stability index by setting is: under setting [1], 4.43 ± 0.37; under setting [2], 4.98 ± 0.19.

Turning to GHLRGPEIRDWRGPQLEGEKDWGL [ZSWIM9], the protein stability index came out at 3.66 ± 0.39 under setting [1] and 3.52 ± 0.47 under setting [2].

Regarding GIAIVSVLVILISIVIFCLETLPE [KCNA3], the protein stability index reads like this: under setting [1], 2.21 ± 0.26; under setting [2], 2.36 ± 0.46.

Regarding GIFKIEDSAQVARLWGIRKNRPAM [SPDEF], the protein stability index under setting [1] turned out to be 2.71 ± 0.4 and the protein stability index under setting [2] is 2.86 ± 0.3.

GKTKKDYQEASNLEQFVTRFLLKE [NECAB1]: the protein stability index reads like this: under setting [1], 2.97 ± 0.3; under setting [2], 3.36 ± 0.37.

Take GLAFIAFTEAMTHFPASPFWSVMF [SLC6A17]: the protein stability index is, setting by setting: under setting [1], 3.15 ± 0.1; under setting [2], 3.13 ± 0.51.

As to GLERRDWSPSPPATPEQGLSAFYL [SPDEF], the protein stability index runs as follows: under setting [1], 3.03 ± 0.25; under setting [2], 2.84 ± 0.15.

In the case of GLGFASNAFQETWYWHGDVNSNKV [LOXL2], the protein stability index is, setting by setting: under setting [1], 3.04 ± 0.12; under setting [2], 2.44 ± 0.29.

Turning to GLQAQILHCYRDRPHEVLLCSDLV [CHCHD6], the protein stability index reads like this: under setting [1], 2.39 ± 0.39; under setting [2], 2.16 ± 0.33.

With GLQLPSTLPVSGNLLDVYSSQGVA [TFE3], the protein stability index by setting is: under setting [1], 3.15 ± 0.53; under setting [2], 3.4 ± 0.36.

As for GLRKRIATLFFHYIKTPLFNPEVA [IQUB], the protein stability index amounted to 2.12 ± 0.36 under setting [1] and 2.19 ± 0.74 under setting [2].

The sequence GMANGQQWLQSTSGSQRHMVGQKD [TLE6] had a protein stability index under setting [1] of 4.49 ± 0.17 and a protein stability index under setting [2] of 4.47 ± 0.29.

Regarding GPGTPTGPSLPSKRESPGVGGGSG [ZBTB22], the protein stability index is, setting by setting: under setting [1], 5.14 ± 0.31; under setting [2], 4.96 ± 0.27.

With GPLVPRLAGMANHGSPQLGEGMFQ [TBX5], the protein stability index is, setting by setting: under setting [1], 3.67 ± 0.26; under setting [2], 3.75 ± 0.15.

With GPSVSEPPGLPRVSAYVDTTADLD [SPATS1], the protein stability index is, setting by setting: under setting [1], 5.16 ± 0.41; under setting [2], 5.18 ± 0.25.

As to GQTVTIWAANAGVTASPPTDLIWK [LMNB1], the protein stability index under setting [1] was found to be 2.37 ± 0.35 and the protein stability index under setting [2] stood at 2.34 ± 0.32.

Take GRDWRHLPTITSELSGAPRCHTVP [PXN]: the protein stability index runs as follows: under setting [1], 3.44 ± 0.48; under setting [2], 3.51 ± 0.17.

As to GSEENGRYFSLSLMSGALAVNQKI [PCDHGC5], the protein stability index amounted to 2.49 ± 0.2 under setting [1] and 2.6 ± 0.23 under setting [2].

As for GSIMTVWLSTAPTEPLTHWYQVRC [CARM1], the protein stability index came to 2.74 ± 0.99 under setting [1] and 2.84 ± 0.23 under setting [2].

The sequence GSPEQLQIPVTDSGRHILEDSCAE [SDE2] displayed a protein stability index under setting [1] of 5.18 ± 0.27 and a protein stability index under setting [2] of 5.5 ± 0.35.

The sequence GSQIHDQFILRVSPDLEWHAACLK [ISL2] registered a protein stability index under setting [1] of 2.3 ± 0.43 and a protein stability index under setting [2] of 2.66 ± 0.54.

The values above are taken from the supplement of paper PMC10567573.
